Measured values taken from PMC5278397, “Discovery of a junctional epitope antibody that stabilizes IL-6 and gp80 protein:protein interaction and modulates its downstream signaling” (Scientific Reports, 2017).
Where a chain is given by its changes, count along the chain named. Names and notes keep the numbering of the source.

Columns and labels:
[1] = target: T1, IL-6–gp80 complex (IL-6 with gp80V4) (Homo sapiens, UniProt P05231;PDB); test: SPR; His-tagged VHH6 or mutants captured from 1:5 diluted supernatants on a nickel charged NTA chip; equimolar mixture of IL-6 and gp80 (50 nM each) injected for 300 s at 10 μl/min, dissociation 300 s; BIAcore 3000; 25 °C, HBS-P+; settings: one partner purified
T1 construct: interleukin-6 (IL-6), as m2; also called equimolar mixture of IL-6 and gp80
T1 sequence (P05231 28-212, one chain of several): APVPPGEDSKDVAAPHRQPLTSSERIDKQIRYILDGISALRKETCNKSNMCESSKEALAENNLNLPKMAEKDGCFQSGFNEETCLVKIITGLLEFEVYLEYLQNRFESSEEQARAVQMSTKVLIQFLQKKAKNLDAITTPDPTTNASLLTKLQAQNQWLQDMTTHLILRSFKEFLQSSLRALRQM

[2] = target: T2, IL-6 with gp80-hscFc (UniProt P05231;P08887); test: ELISA; IL-6 coated overnight and VHH6 added with gp80-hscFc, or gp80-hscFc coated overnight and VHH6 added with IL-6
T2 construct: interleukin-6 (IL-6), as m2; gp80 of gp80-hscFc, as m4; also called IL-6–gp80 complex (ELISA); source: one partner coated on the plate, the other added together with VHH6
T2 sequence (P05231 30-212, chain 1 of 2): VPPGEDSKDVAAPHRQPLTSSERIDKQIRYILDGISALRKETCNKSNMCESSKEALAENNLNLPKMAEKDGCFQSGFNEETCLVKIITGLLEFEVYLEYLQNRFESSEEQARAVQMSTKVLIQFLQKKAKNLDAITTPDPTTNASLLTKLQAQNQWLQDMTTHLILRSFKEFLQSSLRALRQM
T2 sequence (P08887 20-468, chain 2 of 2): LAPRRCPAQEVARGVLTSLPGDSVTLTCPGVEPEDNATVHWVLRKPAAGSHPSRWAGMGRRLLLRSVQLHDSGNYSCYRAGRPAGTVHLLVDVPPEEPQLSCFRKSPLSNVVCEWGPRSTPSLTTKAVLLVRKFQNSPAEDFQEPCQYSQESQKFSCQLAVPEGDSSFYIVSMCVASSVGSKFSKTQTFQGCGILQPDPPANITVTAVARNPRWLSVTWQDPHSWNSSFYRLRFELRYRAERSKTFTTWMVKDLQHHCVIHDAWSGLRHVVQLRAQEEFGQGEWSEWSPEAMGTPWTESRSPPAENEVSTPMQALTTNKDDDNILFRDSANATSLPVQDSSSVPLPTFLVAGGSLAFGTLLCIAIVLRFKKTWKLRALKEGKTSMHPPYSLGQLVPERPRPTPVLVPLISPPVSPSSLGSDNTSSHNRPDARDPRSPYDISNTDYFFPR

[3] = target: T3, gp80-NT647+IL-6 (Homo sapiens, UniProt P08887;P05231, NT647 dye on primary amines of lysine residues (NHS ester)); test: MST; IL-6 or gp80 labelled with NT647, alone (VHH6 titrated up to 20 μM) or mixed with the unlabelled partner (10 nM IL-6NT647 and 20 nM gp80; VHH6 titrated in); Monolith NT.115, red channel; settings: both partners purified
T3 construct: gp80, as m9; interleukin-6 (IL-6), as m2; also called mixture of gp80-NT647 and IL-6; source: mixture of labelled gp80 and IL-6
T3 sequence (P08887 20-468, chain 1 of 2): as the sequence (P08887 20-468, chain 2 of 2) above
T3 sequence (P05231 30-212, chain 2 of 2): as the sequence (P05231 30-212, chain 1 of 2) above

[4] = target: T4, gp80-NT647 (Homo sapiens, UniProt P08887, NT647 dye on primary amines of lysine residues (NHS ester)); test: as above; settings: both partners purified
T4 construct: IL-6 receptor gp80 (CD126); also called gp80 labelled with NT647; source: labelled with the Monolith labelling Red NHS kit
T4 sequence (P08887 20-468): as the sequence (P08887 20-468, chain 2 of 2) above

[5] = target: T5, IL-6-NT647 (UniProt P05231, NT647 dye on primary amines of lysine residues (NHS ester)); test: as above; settings: both partners purified
T5 construct: interleukin-6 (IL-6); also called IL-6 labelled with NT647; source: labelled with the Monolith labelling Red NHS kit
T5 sequence (P05231 30-212): as the sequence (P05231 30-212, chain 1 of 2) above

[6] = target: T6, IL-6-NT647+gp80 (Homo sapiens, UniProt P05231;P08887, NT647 dye on primary amines of lysine residues (NHS ester)); test: as above; settings: both partners purified
T6 construct: interleukin-6 (IL-6), as m8; gp80, as m5; also called mixture of IL-6-NT647 and gp80; source: mixture of 10 nM IL-6NT647 and 20 nM gp80
T6 sequence (P05231 30-212, chain 1 of 2): as above
T6 sequence (P08887 20-468, chain 2 of 2): as the sequence (P08887 20-468, chain 2 of 2) above

[7] = target: T7, gp80-hscFc (UniProt P08887); test: ELISA; IL-6, gp80 or FusionIL-6 coated at 2 μg/mL in carbonate buffer overnight at 4 °C; supernatant from HEK cells or purified VHHs added; anti-llama-HRP or anti-His-HRP; includes the initial screen
T7 construct: IL-6 receptor gp80 (CD126); hscFc is not explained in the text
T7 sequence (P08887 20-365): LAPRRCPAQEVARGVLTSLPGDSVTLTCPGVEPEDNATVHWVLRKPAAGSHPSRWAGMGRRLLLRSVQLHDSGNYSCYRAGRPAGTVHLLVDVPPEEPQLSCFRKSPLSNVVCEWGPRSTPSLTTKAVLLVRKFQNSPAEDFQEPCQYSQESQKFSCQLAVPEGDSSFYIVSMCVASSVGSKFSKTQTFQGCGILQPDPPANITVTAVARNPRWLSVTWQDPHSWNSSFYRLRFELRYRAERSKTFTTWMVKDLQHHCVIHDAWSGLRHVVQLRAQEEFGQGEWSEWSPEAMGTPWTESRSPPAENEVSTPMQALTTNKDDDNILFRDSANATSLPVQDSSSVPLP

[8] = target: T8, gp80 (Homo sapiens, UniProt P08887); test: BLI; VHH6 captured through its His-tag on Ni-NTA tips; FusionIL-6, IL-6, gp80 and IL-6+gp80 in solution; Octet 384 Red; settings: both partners purified
T8 construct: IL-6 receptor gp80 (CD126), soluble; also called CD126; IL-6 specific receptor

[9] = target: T9, IL-6–gp80 complex (gp80 construct not stated) (Homo sapiens, UniProt P05231;P08887); test: as above; settings: both partners purified
T9 construct: interleukin-6 (IL-6), as m2; gp80, as m5; also called dimeric complex IL-6–gp80; source: mixture of IL-6 and gp80

[10] = target: T10, IL-6 (UniProt P05231 49-212); test: SPR; IL-6 amine-coupled on CM5; gp80 (gp80V4) injected at 50 nM, 30 μl/min, 180 s, dissociation 360 s; 25 °C, HBS-P+; BIAcore 3000; without VHH6; settings: both partners purified
T10 construct: interleukin-6 (IL-6); Two in-house constructs are named (IL-6 and IL-6S21); IL-6 bought from R&D Systems was used 'for in vitro experiments'; source: E. coli, produced in house, purified

B1: VHH6 Y27A mutant (VHH)
VHH: DVQFVESGGGSVHAGGSLRLNCATSGAIYSTYCMGWFRQAPGKEREGVAHIYTNSGRTYYADSVKGRFTISQDNAKNTVYLQMNSLKPEDTAIYYCAARPSIRCASFSATEYKDWGQGTQVTVSS
notes: source: Expi-HEK cells, small scale transient expression, in supernatant; not shown: His6 (TEV-6His), C-terminal, kept
fold increase of the dissociation rate against VHH6 [1]: 1.9 fold

B2: VHH6 double mutant Asn74Ala/Ser101Ala (VHH)
VHH: B1 VHH with A27Y, N74A, S101A
notes: also called double mutant 74/101; source: Expi-HEK cells, small scale transient expression, in supernatant; not shown: His6 (TEV-6His), C-terminal, kept
fold increase of the dissociation rate against VHH6 [1]: 3.8 fold

B3: VHH6 double mutant Ser101Ala/Lys113Ala (VHH)
VHH: B1 VHH with A27Y, S101A, K113A
notes: also called double mutant 113/101; source: Expi-HEK cells, small scale transient expression, in supernatant; not shown: His6 (TEV-6His), C-terminal, kept
fold increase of the dissociation rate against VHH6 [1]: 4.3 fold

B4: VHH6 (VHH)
VHH: B1 VHH with A27Y
notes: camelid single domain antibody; The His tag is named on VHH6 for the Octet and the NTA-chip SPR; also called locking antibody; source: Expi-HEK cells, transiently transfected; in supernatant (SPR on the NTA chip) or purified; not shown: His6 (TEV-6His), C-terminal, kept
binding result [2]: binds | binding result [3]: binds | binding result [4]: no binding (tested: up to 20 μM VHH6) | binding result [5]: no binding (tested: up to 20 μM VHH6) | binding result [6]: binds | binding result [7]: no binding | binding result [8]: no binding | binding result [9]: binds

B5: gp80V4 (receptor)
chain: GLAPRRCPAQEVARGAGAGDVPPEEPQLSCFRKSPLSNVVCEWGPRSTPSLTTKAVLLVRKFQNSPAEDFQEPCQYSQESQKFSCQLAVPEGDSSFYIVSMCVASSVGSKFSKTQTFQGAGILQPDPPANITVTAVARNPRWLSVTWQDPHSWNSSFYRLRFELRYRAERSKTFTTWMVKDLQHHAVIHDAWSGLRHVVQLRAQEEFGQGEWSEWSPEAMGTPWTESRSPP
modifications: N-glycosylated, high-mannose (Expi-HEK/CHO with kifunensine) for crystallography and HDX-MS. The limits and engineered changes are not given, so they are taken from the deposited 5FUC entity 2: D1 …
koff [10]: 0.045 s⁻¹
